Biological target: recombinant HER2 molecule (UniProt P04626 23-652)
Test: BLI (Octet N1), HER2 on streptavidin biosensor

Kd: 123 nM
koff: 0.00258 s⁻¹
kon: 20900 M⁻¹ s⁻¹
B1: trastuzumab light chain P95ΔP96Δ (other)
light: DIQMTQSPSSLSASVGDRVTITCRASQDVNTAVAWYQQKPGKAPKLLIYSASFLYSGVPSRFSGSRSGTDFTLTISSLQPEDFATYYCQQHYTTTFGQGTKVEIKRTVAAPSVFIFPPSDEQLKSGTASVVCLLNNFYPREAKVQWKVDNALQSGNSQESVTEQDSKDSTYSLSSTLTLSKADYEKHKVYACEVTHQGLSSPVTKSFNRGEC
notes: also called Tmb-L-PPΔ; Tmb-L-PΔΔ

From patent EP4737480A1 (Japan Science and Technology Agency, dated 2026)
